Experimental data reported in patent US20240124857A1, “COMPOSITION FOR GUT HEALTH” (DUPONT NUTRITION BIOSCIENCES APS, priority 2021, published 2024).

B1: CRC21322: Acid phosphatase (Class A), accession AEG96708.1, SEQ ID NO:17 (protein)
chain: KENKGFLNADTSPDSLAILPPPPTENSVAFLQDKADYETGRVLKNKERTELAAKDANYKNFGQAFSEAFGMVISAERTPVLYLLLSEVLQDSHDYAMRSAKDHYMRVRPFVLYKNPTCTPEKDDKMAKTGSYPSGHASFGWAAALVLAEINPARETEILKRGMDFGESRVVCGAHWQSDVDSGRIMGAAVVAALHANPRFANTLSEAKKEFAALSAKSE
modifications: Klebsiella aerogenes
B2: CRC22105: GDA1/CD39 family enzyme, accession WP_045094910.1, SEQ ID NO:8 (protein, listed as Legionella fallonii)
chain: ENASCDKHQCITVIDAGSTGSRVHIYAYDLDETNTPTNINEIWTKKIKPGFATIDPNYNTIDAYLTILLSGAPTQQGPVYFYATAGMRLLPASKQKLYYQELQRWFTQQTQWHFVEAKTITGNEEALYDWLSVNYHLGTLKSVQNKAIGVMDMGGASVQIVFPIQKNENIHGRSQVELNIYGQRINLFVHSFLGLGQTEMSHQFLNSTSCFTNDYPLPDGEMGLGNALSCEQEVSSLMNAVHGVSKTIQPVLAANSVDSWYAIGGLTNLADNKLFNFVNGQLTNQSLIEQADSQICHQQWSKLDAQYPNDDYIYGYCLFSSYFYALMVDGYGISPEQTVNYISPSINLDWTKGVVLHHLS
B3: CRC21328: GDA1/CD39 family enzyme, accession CCD05982.1, SEQ ID NO:6 (protein, listed as Legionella pneumophila)
chain: DTNPCEKHSCIAVIDAGSTGSRLHIYSYDTDNTNTPIHIEEIWNKKIKPGFASIQPNSVTIDAYLTMLLADAPIHNIPVYFYATAGMRLLPQSQQKKYYDELEYWFRQQSQWQLVEAKTITGNDEALFDWLAVNYKLDTLKSVQNKSVGVMDMGGASVQIVFPMPKNAEISKHNQVELNIYGQNINLYVHSFLGLGQTEMSHQFLNSPSCFANDYPLPDGESGQGNAPSCKEEVTSLMNSVHKVNQQIQPLLALNPVNEWYSIGGISNLASSQLFHFENSELTNQSLLQQGDNQICHQQWDILNGQYPDDEYLYQYCLLSSYYYALMVDGYGINPNQTIHYIPPEQNLDWTIGVVLHRA
B4: CRC21323: Acid phosphatase (Class A), accession WP_054306375.1, SEQ ID NO:18 (predicted mature), SEQ ID NO:2 (protein, listed as Serratia rubidaea)
chain: AQTPGFLTPETAPDSLQILPPPPAENTTAFLNDKAAYETGKTLKDAQRQALAASDADYKNISAAFSAAFGEEISPEKTPALYALLQGVLQDSHDYAMRAAKDHYMRVRPFVVYKDSTCTPEKDKSMAKTGSYPSGHASFGWATALVLTEINPARETEILKRGYDFGQSRVVCGAHWQSDVDNGRLMGAAVVAALHGNQGFNDALAKAKAEFAKR

Key:
[1] = Enzyme acid resistance: residual activity on ATP after incubation at pH 2; format: physicochemical; settings: FIG. 4; for stability in acid resistance assay: pH 2 for 15 or 60 min
Procedure: Enzyme acid resistance: Candidate enzymes were tested for their ability to resist inactivation at low pH by incubating the enzymes in an “acid buffer” of 50 mM glycine and 5 mM CaCl2 at pH 2 for 15 or 60 minutes and comparing their activity to enzymes in a “control buffer” at their optimum pH. The optimum buffer for CRC21323 and CRC21322 was 50 mM acetate pH 4.5 with 5 mM CaCl2. The optimum buffer for all other enzymes was 50 mM bis-Tris pH 6.5 with 5 mM CaCl2. After incubating in the acidic glycine buffer, the enzyme mixtures were neutralized by mixing with an equal volume of neutralization buffer. The neutralization buffer for CRC21323 and CRC21322 was 100 mM acetate and 10 mM CaCl2 at pH 4.5. The neutralization buffer for the other enzymes was 100 mM bis-Tris and 10 mM CaCl2 at pH 6.5. Next, the acid-stressed and control enzyme were tested for their ability to release phosphate from ATP using the reaction conditions and malachite green assay as described in with the following changes. The only substrate tested was ATP. CRC21323 and CRC21322 were tested with a buffer of acetate pH 4.5, but all other enzymes were tested in a buffer of bis-Tris pH 6.5. After determining the concentration of phosphate in each reaction, the residual activity of each enzyme after 15 or 60 min incubation in the “acid buffer” was calculated by dividing the acid-stressed by the control enzyme phosphate concentrations for each enzyme.

[2] = ATPase activity at 0.05 ppm enzyme on 0.1 mM ATP (absorbance 620 nm); format: biochemical; settings: for Activity on ATP (absorbance at 620 nm, blank subtracted), pH 5.0: 50 mM IVIES buffer pH 5; for Activity on ATP (absorbance at 620 nm, blank subtracted), pH 6.0: 50 mM IVIES buffer pH 6
Procedure: Enzyme activity towards ATP or ADP at pH 3 to 9: The ability of candidate enzymes to degrade ATP or ADP to AMP and free phosphate (Pi) was measured using a standard malachite green phosphate detection kit (Sigma Aldrich cat no. MAK307). The enzyme reactions were carried out in 96-well plates with a total volume of 150 μL and contained 250 μM of a substrate, 50 mM of a buffer, 5 mM CaCl2, and a variable concentration of enzyme. The substrate was ATP or ADP. The buffer was glycine (pH 3), acetate (pH 4, 4.5, 5), bis-Tris (pH 5.5, 6, 6.5), or Tris (pH 7, 8, 9). The concentration of enzyme varied from about 1 μg/mL to 1 ng/mL and was adjusted based on the activity of the enzyme so that the amount of phosphate released during the assay was with the dynamic range of the assay (5-100 μM phosphate). The enzyme concentration was determined by the absorbance at 280 nm and using the predicted molecular weight and molar extinction coefficient to calculate the concentration. The enzyme reaction was initiated by the addition of 15 μL enzyme with 135 μL of the other reaction components such that the final reaction composition was as previously described. The reaction was stopped after 5 min by mixing 80 μL of the reaction mixture with 20 μL of the malachite green working reagent. The malachite green working reagent was prepared according to the manufacturer's protocol by mixing 100 parts reagent A with 1 part reagent B. Phosphate standard solutions (0-80 μM) and a negative control reaction without enzyme were also mixed with the malachite green working reagent. All samples were tested in duplicate. The malachite green reaction mixture was allowed to rest at room temperature for 45-60 min and the absorbance at 620 nm was measured. Lastly, the absorbance of the phosphate standards were used to convert the absorbance readings of each sample into phosphate concentrations and the negative control was subtracted from each reaction.
Enzymes of interest were assayed against ATP substrate. The ATPase activity was measured at 0.05 ppm concentration in 50 mM IVIES buffer pH 6 and pH 5 with 0.1 mM ATP as substrate as described in Example 1. Commercial potato apyrase was used as reference. The absorbance at 620 nm was measured and the absorbance of a blank sample (water) was subtracted from each sample.

[3] = Enzyme substrate specificity on nucleotide substrates (malachite green assay); format: biochemical; settings: FIG. 3; bis-Tris pH 6.5 (CRC21323, CRC21322 acetate pH 4.5; CD39 pH 7)
Procedure: Enzyme activity towards ATP or ADP at pH 3 to 9: The ability of candidate enzymes to degrade ATP or ADP to AMP and free phosphate (Pi) was measured using a standard malachite green phosphate detection kit (Sigma Aldrich cat no. MAK307). The enzyme reactions were carried out in 96-well plates with a total volume of 150 μL and contained 250 μM of a substrate, 50 mM of a buffer, 5 mM CaCl2, and a variable concentration of enzyme. The substrate was ATP or ADP. The buffer was glycine (pH 3), acetate (pH 4, 4.5, 5), bis-Tris (pH 5.5, 6, 6.5), or Tris (pH 7, 8, 9). […] The enzyme concentration was determined by the absorbance at 280 nm and using the predicted molecular weight and molar extinction coefficient to calculate the concentration. […] The malachite green reaction mixture was allowed to rest at room temperature for 45-60 min and the absorbance at 620 nm was measured. Lastly, the absorbance of the phosphate standards were used to convert the absorbance readings of each sample into phosphate concentrations and the negative control was subtracted from each reaction.
Enzyme substrate specificity: The activity of the enzymes on different nucleotide substrates was tested using the malachite green assay. […] After converting the absorbance to phosphate concentration, the activity of each enzyme was set relative to the activity on ATP.

[4] = tested on: Acute DSS colitis in C57BL/6 mice; experiment: Chemically-induced DSS colitis mouse model, disease activity index (DAI); format: in vivo
Description: Acute DSS colitis was induced in C57BL/6 mice according to the previously published method with minor modification (Sann et al., 2013, Life Sci. April 9; 92(12):708-18). The mice were fed 3% (w/v) DSS dissolved in the drinking water on day one to day five. Fresh DSS solution was provided every other day. Control mice (Group 1) drank only distilled water. Groups 4 to 8 received candidate acid phosphatase enzymes by oral gavage and groups 9 to 12 received enzymes via catheter (Table 2). DAI was calculated as described earlier (Cooper et al., 1993, Laboratory investigation; a journal of technical methods and pathology. 69(2):238-49).

Row | Molecule | stability in acid resistance assay [1] | Activity on ATP (absorbance at 620 nm, blank subtracted), pH 5.0 [2] | Activity on ATP (absorbance at 620 nm, blank subtracted), pH 6.0 [2] | activity on different nucleotide substrate relative to ATP [3] | residual activity after incubation at pH 2 ([1]; 60 min in acid buffer, 50 mM glycine, 5 mM CaCl2) | reduction in DAI score compared to control ([4]; catheterized mice, test items via cecum BID, FIG. 6A, 6B) [%] | improvement in DAI score compared to control ([4]; non-catheterized mice, oral gavage BID, FIG. 5A, 5B) [%]
1 | B1 | least stable | 0.40 | 0.07 | – | – | – | –
2 | B2 | – | 0.26 | 0.28 | noticeably reduced activity on UTP/UDP and CTP/CDP | – | – | –
3 | B3 | – | 0.45 | 0.27 | – | greatest resistance | – | –
4 | B4 | least stable | 0.39 | 0.10 | – | – | 40 | 43
